Among the data in patent publication US8628762B2, “T-helper cell type 17 lineage-specific adjuvants, compositions and methods” (Icahn School of Medicine at Mount Sinai, priority 2008, dated 2014) are IL-17 production values, retold here.

For the test, the system named is Naïve CD4 T-cells. Kind of test: In vitro T-cell differentiation in DC conditioned medium, IL-17/IL-10 in supernatants by ELISA. Type of test: cell-based, C57BL/6J mice. The following applies: IL-6 supplemented to DCCM-apoptotic B-cells. As for the experimental part: Bone marrow (BM)-derived GM-CSF DC cultures were grown in RPMI supplemented with GM-CSF and 5% foetal bovine serum (FBS), plus 100 μg/mL penicillin, 100 μg/mL streptomycin, 2 mM L-glutamine, 10 mM HEPES, 1 nM sodium pyruvate, 1×MEM nonessential amino acids, and 2.5 μM β-mercaptoethanol (all from Sigma-Aldrich, St. Louis, Mo.), as previously dcseribed^1. Semi-adherent cells were harvested on ice on day 5 and re-plated immediately in fresh GM-CSF medium at 1×10^6 cells/well in 24-well tissue culture-treated plates. Soluble or phagocytic stimuli were added right away to the plates in the same medium and the cells were centrifuged for 2 min at 2000 rpm. Supernatants (conditioned medium, CM) were collected after 18 hours. LPS (from E. coli, serotype 055:B5, L-2880) was purchased from Sigma-Aldrich. BMDC were treated with various doses of soluble LPS or 2:1 A20 LPS blasts:DC to titrate the LPS such that levels of IL-6 produced by DC in response to these stimuli was similar. Soluble LPS was used at a final concentration of 1 ng/mL. The A20 B-cell line was obtained from the ATCC (TIB-208). A20 LPS blasts were prepared by culturing A20 cells at 1×10^6 cells/mL, 3 mL/well in 6-well tissue culture plates for four days in RPMI medium supplemented with 10% FBS, with 100 μg/mL penicillin, 100 μg/mL streptomycin, 2 mM L-glutamine, 10 mM HEPES, 1 nM sodium pyruvate, plus 25 μg/mL LPS, as previously described in Blander, J. M. and Medzhitov, R. (2004) Science 304(5673):1014. […] Cells were centrifuged, counted, and apoptosis was induced by UV irradiation at 350 mJ. […]
Naïve CD4 T cells were isolated first by sorting with MACS® CD4^+ beads (Miltenyi Biotech, Auburn, Calif.) according to manufacturer's instructions and then by fluorescence activated cell sorting (FACS) using a MoFlo™, Vantage, or Influx™ cell sorter for CD25^−CD44^lowCD62L^high cells using allophycocyanin (APC)-conjugated anti-CD25 monoclonal antibody (mAb) (clone PC61.5), FITC-conjugated CD62L mAb (clone MEL-14), and PE-Cy5-conjugated CD44 mAb (clone IM7) (all from eBioscience™, San Diego, Calif.). […]
On the technique in general: In an ELISA, binding on a coated surface is turned into a signal by an enzyme label.

B1: IL-6: cytokine interleukin-6 (Peprotech), 50 ng/mL (protein, UniProt P08505 25-211, looked up)
Interleukin-6: FPTSQVRRGDFTEDTTPNRPVYTTSQVGGLITHVLWEIVEMRKELCNGNSDCMNNDDALAENNLKLPEIQRNDGCYQTGYNQEICLLKISSGLLEYHSYLEYMKNNLKDNKKDKARVLQRDTETLIHIFNQEVKDLHKIVLPTPISNALLTDKLESQKEWLRTKTIQFILKSLEEFLKVTLRSTRQT
Take B1: the IL-17 production entry is on record as “restored IL-17 production”.
